One substance from publication PMC2839085 can be followed below.

The assay concerns the target TmMre11 (TM1635) truncated construct, residues 1-324 (Thermotoga maritima) (UniProt Q9X1X0). The assay can be described thus: crystal structure.

In general, stoichiometry N refers to a count of units in the complex or per binding partner. As for “TmMre11 (TM1635) truncated construct, residues 1-324 (from UniProt Q9X1X0 1-324) (domain or fragment)”, the stoichiometry N came to 2.
